Laboratory results as given in US20220064286A1 (Genentech, published 2022).
Numbering of substitutions follows the chain as printed. Numbers in names are those of the source.

B1: h7E7.L1H3 (antibody, V domains shown)
VH: EVQLVQSGAEVKKPGASVKVSCKASGYTFTEYSIYWVRQAPGQRLEIMGRIDPKNGRTYYVDKFKNRATLTADTSASTAYMELSSLRSEDTAVYFCTRIYGFYFDFWGQGTLVTVSS
VL: DIQLTQSPSFLSASVGDRVTITCKGSQNVNKYLVWYQQKPGKAPKLLIYNTDNLQSGIPSRFSGSGSGTEYTLTISSLQPEDFATYFCYQYNNGFTFGQGTKVEIK
notes: VH: I48M against h7E7.L1H1; FR/HVR pieces
B2: h7E7.L1H4 (antibody, V domains shown)
VH: B1 VH with M48I, A68V
VL: B1 VL
notes: VH: A67V against h7E7.L1H1; FR/HVR pieces
B3: h7E7.L1H5 (antibody, V domains shown)
VH: B1 VH with M48I, L70I
VL: B1 VL
notes: VH: L69I (printed L691) against h7E7.L1H1; FR/HVR pieces
B4: h7E7.L1H6 (antibody, V domains shown)
VH: B1 VH with M48I, A72R
VL: B1 VL
notes: VH: A71R against h7E7.L1H1; FR/HVR pieces
B5: h7E7.L1H7 (antibody, V domains shown)
VH: B1 VH with M48I, F95Y
VL: B1 VL
notes: VH: F91Y against h7E7.L1H1; FR/HVR pieces
B6: h7E7.L1H8 (antibody, V domains shown)
VH: B1 VH with M48I, T97A
VL: B1 VL
notes: VH: T93A against h7E7.L1H1; FR/HVR pieces
B7: h7E7.L2H1 (antibody, V domains shown)
VH: B1 VH with M48I
VL: B1 VL with I58V
notes: VL: I58V against h7E7.L1H1; FR/HVR pieces
B8: h7E7.L3H1 (antibody, V domains shown)
VH: B1 VH with M48I
VL: B1 VL with Y71F
notes: VL: Y71F against h7E7.L1H1; FR/HVR pieces
B9: h7E7.L4H1 (antibody, V domains shown)
VH: B1 VH with M48I
VL: B1 VL with F87Y
notes: VL: F87Y against h7E7.L1H1; FR/HVR pieces
B10: h7E7.L5H1 (antibody, V domains shown)
VH: B1 VH with M48I
VL: B1 VL with I58V, Y71F, F87Y
notes: VL: I58V, Y71F, F87Y against h7E7.L1H1; FR/HVR pieces
B11: h15C8.L1H2 (antibody, V domains shown)
VH: B1 VH with Y32H, M48I, Y60F, A72T, T97A, Y100D
VL: B1 VL with N50S
notes: VH: L37V against h15C8.L1H1; FR/HVR pieces
B12: h15C8.L1H4 (antibody, V domains shown)
VH: B1 VH with Y32H, V37L, Y60F, A72T, T97A, Y100D
VL: B1 VL with N50S
notes: VH: I48M against h15C8.L1H1; FR/HVR pieces
B13: h15C8.L1H5 (antibody, V domains shown)
VH: B1 VH with Y32H, V37L, M48I, Y60F, A68V, A72T, T97A, Y100D
VL: B1 VL with N50S
notes: VH: A67V against h15C8.L1H1; FR/HVR pieces
B14: h15C8.L1H6 (antibody, V domains shown)
VH: B1 VH with Y32H, V37L, M48I, Y60F, L70I, A72T, T97A, Y100D
VL: B1 VL with N50S
notes: VH: L69I (printed L691) against h15C8.L1H1; FR/HVR pieces
B15: h15C8.L1H7 (antibody, V domains shown)
VH: B1 VH with Y32H, V37L, M48I, Y60F, A72R, T97A, Y100D
VL: B1 VL with N50S
notes: VH: T71R against h15C8.L1H1; FR/HVR pieces
B16: h15C8.L1H8 (antibody, V domains shown)
VH: B1 VH with Y32H, V37L, M48I, Y60F, A72T, F95Y, T97A, Y100D
VL: B1 VL with N50S
notes: VH: F91Y against h15C8.L1H1; FR/HVR pieces
B17: h15C8.L2H1 (antibody, V domains shown)
VH: B1 VH with Y32H, V37L, M48I, Y60F, A72T, T97A, Y100D
VL: B1 VL with N50S, I58V
notes: VL: I58V against h15C8.L1H1; FR/HVR pieces
B18: h15C8.L3H1 (antibody, V domains shown)
VH: B1 VH with Y32H, V37L, M48I, Y60F, A72T, T97A, Y100D
VL: B1 VL with N50S, Y71F
notes: VL: Y71F against h15C8.L1H1; FR/HVR pieces
B19: h15C8.L4H1 (antibody, V domains shown)
VH: B1 VH with Y32H, V37L, M48I, Y60F, A72T, T97A, Y100D
VL: B1 VL with N50S, F87Y
notes: VL: F87Y against h15C8.L1H1; FR/HVR pieces
B20: h15C8.L5H1 (antibody, V domains shown)
VH: B1 VH with Y32H, V37L, M48I, Y60F, A72T, T97A, Y100D
VL: B1 VL with N50S, I58V, Y71F, F87Y
notes: VL: I58V, Y71F, F87Y against h15C8.L1H1; FR/HVR pieces
B21: h15C8.L5aH9a (antibody, V domains shown)
VH: B1 VH with Y32H, V37L, Y60F, L70I, A72T, F95Y, T97A, Y100D
VL: B1 VL with N50S, I58V, F87Y
notes: Final humanized 15C8; keeps rat VH I47, L37, A67, T71 and VL Y71; FR/HVR pieces
B22: h10A5.L4H4 (antibody, V domains shown)
VH: EVTLKESGPALVKPTQTLTLTCTFSGFSLTTYGMGVSWIRQPPGKALEWLASIWWNGNTYYNPSLRSRLTITKDTSKNQVVLTMTNMDPVDTATYYCAHTGGAVITWFAYWGQGTLVTVSS
VL: EIVMTQSPATLSVSPGERATLSCKASQSVGKNIAWYQQKPGQAPRLLIYYASNRYTGIPARFSGSGSGTEFTLTISSLQSEDFAVYYCQHIYNSPYPFGQGTKVEIK
notes: Fully humanized version; FR/HVR pieces in order
B23: 4.1A4.Q1E.C96 (antibody, V domains shown)
VH: EVQLVQSGSELKKPGASVKVSCKASGYTLTNYPMNWVRQAPGRGLEWMGWINTNTGSPAYAQDFTERFVFSLDTSVTTAYLQISSLKAEDTAVYYCARTAITSVYHFDYWGQGTLVTVSS
VL: DIQLTQSPSFLSASVGDRVTITCRASQGISSYLAWYQQKPGKAPRVLIYGATTLQSGVPSRFSGSESGTEFTLTISSLQPEDLATYYCQKLNSHPCSFGQGTKVEIK
notes: built from its name as 4.1A4 with Q1E in VH and C96 kept in VL
B24: 7.4A3.Q1E.C96 (antibody, V domains shown)
VH: EVQLVQSGSDLKKPGASVRVSCKASGYTFTSYPMNWVRQAPGHGLEWMGWINTNTGNPTYVQGFTGRFVFSLDTSVNTAYLQISSLKAEDTAVYFCARTGGHTYDSYAFDVWGQGTMVTVSS
VL: DIQLTQSPTFLSASVGDRVTITCRASQVISSSLAWYQQNPGKAPKLLIYAASTLQSGVPSRFSGSGSGTEFTLTISSLQPEDFVTYYCQHLHGYPCNFGQGTKVEIK
notes: built from its name as 7.4A3 with Q1E in VH and C96 kept in VL

target: T1, cynomolgus monkey (cyno) TIGIT protein (cynomolgus monkey, UniProt A0A7N9I9V4 89-209); experiment: SPR, captured mAb
T1 sequence (A0A7N9I9V4 entry or part of it): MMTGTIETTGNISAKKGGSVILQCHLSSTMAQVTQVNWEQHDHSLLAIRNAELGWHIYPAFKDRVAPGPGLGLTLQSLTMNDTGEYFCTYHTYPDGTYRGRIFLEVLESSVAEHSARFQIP
Protocol: (§1) Briefly, a series S CM5 biosensor chip was activated with N-ethyl-N′-(3-dimethylaminopropyl)-carbodiimide hydrochloride (EDC) and N-hydroxysuccinimide (NHS) reagents according to the supplier's (GE Healthcare Biosciences, Piscataway, N.J.) instructions, and a human antibody capture kit was applied to couple goat anti-human Fc IgGs in order to achieve approximately 10,000 response units (RU) on each flow cell, followed by blocking un-reacted groups with 1M ethanolamine.
(§2) (flow rate: 30 μl/min) with no regeneration between injections. The sensorgrams were recorded and evaluated by BIAcore™ T200 Evaluation Software (version 2.0) after subtraction of reference cell signal. Association rates (kₒₙ) and dissociation rates (koff) were calculated using a simple one-to-one Langmuir binding model. The equilibrium dissociation constant (KD) was calculated as the ratio koff/kₒₙ.
(§3) The first humanized versions, h6B2, L1H1, h10A5.L1H1, h7E7, L1H1, and h15C8.L1H1, which contain both rat CDRs and framework residues at Vernier positions, and the fully humanized versions, h6B2.L2H5, h10A5.L4H4, h7E7.L5H9, and h15C8.L5H9, which contain only rat CDRs were subject to BIAcore affinity measurement by comparison with original rat antibodies, rat6B2, rat10A5, rat7E7 and rat 15C8. For binding affinity determinations of TIGIT antibodies against human TIGIT, cynomolgus monkey TIGIT and human alanine-scanned TIGIT mutants by single-cycle kinetics, Surface Plasmon Resonance (SRP) measurement with a BIACORE™-T200 instrument was used, as described above.

Row | Binder | Kd | koff | kon
1 | B1 | 0.42 nM | 0.000381 s⁻¹ | 908000 M⁻¹ s⁻¹
2 | B2 | 0.4 nM | 0.000243 s⁻¹ | 601000 M⁻¹ s⁻¹
3 | B3 | 0.4 nM | 0.000359 s⁻¹ | 898000 M⁻¹ s⁻¹
4 | B4 | 0.44 nM | 0.000284 s⁻¹ | 641000 M⁻¹ s⁻¹
5 | B5 | 0.43 nM | 0.000286 s⁻¹ | 664000 M⁻¹ s⁻¹
6 | B6 | 0.39 nM | 0.000331 s⁻¹ | 845000 M⁻¹ s⁻¹
7 | B7 | 0.36 nM | 0.000179 s⁻¹ | 493000 M⁻¹ s⁻¹
8 | B8 | 0.95 nM | 0.00122 s⁻¹ | 1.28e+06 M⁻¹ s⁻¹
9 | B9 | 0.44 nM | 0.000274 s⁻¹ | 629000 M⁻¹ s⁻¹
10 | B10 | 0.56 nM | 0.000324 s⁻¹ | 575000 M⁻¹ s⁻¹
11 | B11 | 2.1 nM | 0.000806 s⁻¹ | 382000 M⁻¹ s⁻¹
12 | B12 | 1.05 nM | 0.000558 s⁻¹ | 532000 M⁻¹ s⁻¹
13 | B13 | 1.15 nM | 0.000558 s⁻¹ | 484000 M⁻¹ s⁻¹
14 | B14 | 0.84 nM | 0.000556 s⁻¹ | 663000 M⁻¹ s⁻¹
15 | B15 | 0.94 nM | 0.000206 s⁻¹ | 219000 M⁻¹ s⁻¹
16 | B16 | 0.41 nM | 0.000119 s⁻¹ | 291000 M⁻¹ s⁻¹
17 | B17 | 1 nM | 0.000502 s⁻¹ | 502000 M⁻¹ s⁻¹
18 | B18 | 1.75 nM | 0.000588 s⁻¹ | 336000 M⁻¹ s⁻¹
19 | B19 | 1.15 nM | 0.000559 s⁻¹ | 485000 M⁻¹ s⁻¹
20 | B20 | 2.68 nM | 0.000752 s⁻¹ | 281000 M⁻¹ s⁻¹
21 | B21 | 1.03 nM | 0.000613 s⁻¹ | 596000 M⁻¹ s⁻¹
22 | B22 | 0.85 nM | 0.00129 s⁻¹ | 1.52e+06 M⁻¹ s⁻¹

target: T2, human TIGIT protein (human, UniProt Q495A1 22-141, limits assumed); experiment: SPR, captured mAb
T2 construct: Recombinant protein (Genentech) used in ELISA screening and as SPR analyte; also called TIGIT antigen
T2 sequence: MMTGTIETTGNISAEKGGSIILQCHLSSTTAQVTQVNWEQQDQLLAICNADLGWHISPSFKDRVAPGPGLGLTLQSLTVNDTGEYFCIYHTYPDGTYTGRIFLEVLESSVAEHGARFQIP
Protocol: as §1, §2, §3

Row | Binder | Kd | koff | kon
23 | B1 | 0.38 nM | 0.00107 s⁻¹ | 2.82e+06 M⁻¹ s⁻¹
24 | B2 | 0.27 nM | 0.000749 s⁻¹ | 2.79e+06 M⁻¹ s⁻¹
25 | B3 | 0.4 nM | 0.00129 s⁻¹ | 3.24e+06 M⁻¹ s⁻¹
26 | B4 | 0.35 nM | 0.000648 s⁻¹ | 1.85e+06 M⁻¹ s⁻¹
27 | B5 | 0.31 nM | 0.000849 s⁻¹ | 2.74e+06 M⁻¹ s⁻¹
28 | B6 | 0.36 nM | 0.00101 s⁻¹ | 2.78e+06 M⁻¹ s⁻¹
29 | B7 | 0.24 nM | 0.000504 s⁻¹ | 2.06e+06 M⁻¹ s⁻¹
30 | B8 | 0.24 nM | 0.000218 s⁻¹ | 920000 M⁻¹ s⁻¹
31 | B9 | 0.27 nM | 0.000796 s⁻¹ | 2.95e+06 M⁻¹ s⁻¹
32 | B10 | 0.32 nM | 0.00104 s⁻¹ | 3.21e+06 M⁻¹ s⁻¹
33 | B11 | 1.03 nM | 0.00107 s⁻¹ | 1.04e+06 M⁻¹ s⁻¹
34 | B12 | 0.59 nM | 0.000498 s⁻¹ | 841000 M⁻¹ s⁻¹
35 | B13 | 0.71 nM | 0.000567 s⁻¹ | 798000 M⁻¹ s⁻¹
36 | B14 | 0.55 nM | 0.000756 s⁻¹ | 1.38e+06 M⁻¹ s⁻¹
37 | B15 | 0.98 nM | 0.000597 s⁻¹ | 610000 M⁻¹ s⁻¹
38 | B16 | 0.61 nM | 0.000381 s⁻¹ | 620000 M⁻¹ s⁻¹
39 | B17 | 0.66 nM | 0.000506 s⁻¹ | 771000 M⁻¹ s⁻¹
40 | B18 | 0.84 nM | 0.000533 s⁻¹ | 631000 M⁻¹ s⁻¹
41 | B19 | 0.64 nM | 0.000611 s⁻¹ | 955000 M⁻¹ s⁻¹
42 | B20 | 0.83 nM | 0.000562 s⁻¹ | 674000 M⁻¹ s⁻¹
43 | B21 | 0.38 nM | 0.000421 s⁻¹ | 1.12e+06 M⁻¹ s⁻¹
44 | B22 | 0.44 nM | 0.00227 s⁻¹ | 5.21e+06 M⁻¹ s⁻¹

target: T1, cynomolgus monkey (cyno) TIGIT protein; experiment: SPR, monovalent affinity

Row | Binder | Kd
45 | B23 | 2.4 nM
46 | B24 | 2.09 nM

target: T2, human TIGIT protein; experiment: SPR, monovalent affinity

Row | Binder | Kd
47 | B23 | 3.6 nM
48 | B24 | 3.45 nM
